This note sets out measurements from PMC8809517, “Cofactor-independent RNA editing by a synthetic S-type PPR protein”.

Assay in all cases: high-throughput RNA pulldown from lysate on Ni-NTA beads; HRP: 50 mM Tris pH 8, 150 mM NaCl, 1 mM beta-mercaptoethanol, 50 ug/ml BSA, 3 ug/ml yeast RNA, 0.5% heparin; ITC and FP: Tris pH 8, 200 mM KCl, 5% glycerol; MST: 50 mM Tris pH 8, 200 mM NaCl, 1 mM DTT, BSA, heparin, 0.05% Tween 20
Common to all, as to details: tags: N-terminal His-eGFP

Data set [1] concerns the target T1, GFP-9S library array, motif 4 ND N98P;D124C (synthetic construct, N98P;D124C).
T1 chain: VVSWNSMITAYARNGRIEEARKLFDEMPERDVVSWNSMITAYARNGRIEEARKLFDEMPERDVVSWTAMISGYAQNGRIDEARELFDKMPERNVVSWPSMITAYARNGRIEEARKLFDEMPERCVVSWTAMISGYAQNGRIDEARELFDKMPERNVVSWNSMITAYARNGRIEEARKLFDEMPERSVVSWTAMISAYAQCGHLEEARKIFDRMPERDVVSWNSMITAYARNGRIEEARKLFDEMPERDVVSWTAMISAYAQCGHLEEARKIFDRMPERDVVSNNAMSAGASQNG

In data set [2] the target is T2, GFP-9S library array, motif 4 ND N98D;D124W (synthetic construct, N98D;D124W).
T2 chain: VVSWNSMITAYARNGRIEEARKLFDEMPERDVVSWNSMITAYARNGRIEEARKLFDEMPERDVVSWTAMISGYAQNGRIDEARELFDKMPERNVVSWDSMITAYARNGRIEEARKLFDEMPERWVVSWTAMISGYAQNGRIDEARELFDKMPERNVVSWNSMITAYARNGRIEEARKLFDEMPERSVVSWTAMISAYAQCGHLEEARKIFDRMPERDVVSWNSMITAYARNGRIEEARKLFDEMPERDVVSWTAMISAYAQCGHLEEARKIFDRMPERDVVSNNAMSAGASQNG

Data set [3] deals with T3, GFP-9S library array, motif 4 ND N98R;D124T (synthetic construct, N98R;D124T).
T3 chain: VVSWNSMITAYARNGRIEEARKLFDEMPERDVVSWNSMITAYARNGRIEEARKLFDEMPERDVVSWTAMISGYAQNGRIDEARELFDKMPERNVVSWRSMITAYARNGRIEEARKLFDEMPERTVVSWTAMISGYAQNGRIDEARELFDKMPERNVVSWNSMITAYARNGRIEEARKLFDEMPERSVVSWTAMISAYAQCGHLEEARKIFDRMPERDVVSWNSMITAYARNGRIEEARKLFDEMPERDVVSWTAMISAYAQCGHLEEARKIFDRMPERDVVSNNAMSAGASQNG

The target in data set [4] is T4, GFP-9S library array, motif 4 ND N98L;D124M (synthetic construct, N98L;D124M).
T4 chain: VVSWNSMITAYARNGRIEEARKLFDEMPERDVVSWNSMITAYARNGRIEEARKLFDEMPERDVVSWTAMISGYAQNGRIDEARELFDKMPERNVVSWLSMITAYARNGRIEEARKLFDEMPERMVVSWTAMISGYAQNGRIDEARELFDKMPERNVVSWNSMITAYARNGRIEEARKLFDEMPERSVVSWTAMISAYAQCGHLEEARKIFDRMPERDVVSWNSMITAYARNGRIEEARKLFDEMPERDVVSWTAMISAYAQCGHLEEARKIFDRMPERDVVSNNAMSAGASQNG

Data set [5] has as its target T5, GFP-9S library array, motif 4 ND N98Y;D124H (synthetic construct, N98Y;D124H).
T5 chain: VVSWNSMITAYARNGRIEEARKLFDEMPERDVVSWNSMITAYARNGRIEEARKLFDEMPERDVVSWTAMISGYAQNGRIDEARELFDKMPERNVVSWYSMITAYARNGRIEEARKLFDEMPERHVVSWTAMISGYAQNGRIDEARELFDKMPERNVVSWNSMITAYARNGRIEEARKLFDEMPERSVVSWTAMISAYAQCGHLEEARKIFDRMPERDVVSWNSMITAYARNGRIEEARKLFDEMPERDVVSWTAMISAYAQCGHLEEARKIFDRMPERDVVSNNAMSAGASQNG

B1: IR-rpoA-A (ssRNA)
RNA: AUUAAACGUGA
The Kd is the constant that tells how readily two partners part at equilibrium. Higher therefore signals a looser complex. B1: the Kd in data set [1] (label: 5' IRDye 800CW) stood at 660 nM; in data set [2] (label: 5' IRDye 800CW), 572 nM; in data set [3] (label: 5' IRDye 800CW) it was 173 nM; in data set [4] (label: 5' IRDye 800CW), 381 nM; in data set [5] (label: 5' IRDye 800CW), 111 nM.

B2: Cy5-rpoA (ssRNA)
RNA: AUUACACGUGA
B2: the Kd in data set [1] (label: 5' Cy5) worked out at 332 nM; in data set [2] (label: 5' Cy5) it was 134 nM; in data set [3] (label: 5' Cy5), 74.7 nM; in data set [4] (label: 5' Cy5) it was 104 nM; in data set [5] (label: 5' Cy5), 5.06 nM.

B3: Cy5-rpoA-G (ssRNA)
RNA: AUUAGACGUGA
With B3, the Kd was 297 nM in data set [1] (label: 5' Cy5); 178 nM in data set [2] (label: 5' Cy5); 98.5 nM in data set [3] (label: 5' Cy5); 122 nM in data set [4] (label: 5' Cy5); 46 nM in data set [5] (label: 5' Cy5).

B4: IR-rpoA-U (ssRNA)
RNA: AUUAUACGUGA
For the molecule B4, the Kd in data set [1] (label: 5' IRDye 800CW) is 874 nM; in data set [2] (label: 5' IRDye 800CW), 202 nM; in data set [3] (label: 5' IRDye 800CW), 85.9 nM; in data set [4] (label: 5' IRDye 800CW) it was 176 nM; in data set [5] (label: 5' IRDye 800CW) it was 169 nM.
